According to publication PMC10698503, “Phosphatase specificity principles uncovered by MRBLE:Dephos and global substrate identification” (Molecular Systems Biology, 2023):

Each substance was assayed against His-PP1γ (UniProt P36873) (assay: ITC; peptide (approximately 450 µM, syringe) titrated into PP1γ (~35 µM, cell); 25°C; 50 mM sodium phosphate, 150 mM NaCl, 0.5 mM TCEP, pH 7.5; single-site model).
Chain of His-PP1γ (P36873 whole entry): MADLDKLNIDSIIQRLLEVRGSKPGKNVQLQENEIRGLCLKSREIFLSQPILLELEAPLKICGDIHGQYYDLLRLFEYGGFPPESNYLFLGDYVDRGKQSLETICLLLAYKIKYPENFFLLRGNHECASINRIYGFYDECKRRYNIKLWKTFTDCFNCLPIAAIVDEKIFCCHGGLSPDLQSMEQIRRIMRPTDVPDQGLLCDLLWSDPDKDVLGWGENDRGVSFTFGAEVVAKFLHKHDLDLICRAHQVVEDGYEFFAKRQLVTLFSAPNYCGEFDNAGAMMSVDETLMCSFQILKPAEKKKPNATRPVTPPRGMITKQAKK

Substance	Kd
KNL1 1441-1455 pS1448 peptide KLNSKRV(pS)FKLPKDQW	1.73 µM
Nipp1 197-209 pT202 peptide AKNSRV(pT)FSEDDEIW	4.51 µM
Sororin 76-96 pS79 peptide PRR(pS)…	7.24 µM
Sororin 76-96 pS83 peptide PRRSPRI(pS)…	3.46 µM
